Data as given in the nanobody polyreactivity screen of Harvey et al. (2022).

assay: yeast display, Sf9 membrane polyspecificity reagent, FACS + sequencing; frameworks hold sequencing errors
Procedure, shortened: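 Genes from sorted yeast were amplified by colony PCR, read by MiSeq 2 × 250 sequencing and filtered on CDR length. These cells carried a synthetic nanobody library in Saccharomyces cerevisiae BJ5465 and were sorted by FACS into low and high (top ~1%) gates on anti-HA and streptavidin fluorescence. Polyreactivity is labelled according to the gate of origin.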

Sequence | polyreactivity (PSR sort gate)
QVQLVESGGGLVQAGGSLRLSCAASGSTFTSNTRWYRQAPGKERELVAAISNRGGGTYYADSVKGRFTISRDNAKNTVYLQMNSLKPEDTAVYYCNAAGYARKTAYYYWGQGTQVTVSS | high polyreactivity
QVQLVESGGGLVQAGGSLRLSCAASGSTFGYNAMGWYRQAPGKERELVAGISSGGSTNYADSVKGRFTISRDNAKNTVYLQMNSLKPEDTAVYYCNVDERQFSTVYPYRQFDYWGQVTQVTVSS | low polyreactivity
QVQLVESGGGFVQAGGSLRLSCAASGFTFWVYAMGWYRQAPGKERELVAGITWSGGSTSYADSVKGRFTISRDNAKNTVYLQMNSLKPEDTAVYYCAADDFGYPDDMNYWGQGTQVTVSS | low polyreactivity
QVQLVESGGGLVQAGGSLRLSCAASVSTFYSYAMGAYRKAPGKERELVATISTRGGSTYYADSVKGRFTISRDNAKNTVYLHMNSLKPEDTAVYYCNVRLEYRYYRGDYWGHGTQVTVSS | high polyreactivity
QVQLVESGGGLFQAGVSLRISCAASGFIFDRNAMGWYRQAPGKERELVAVINSGGSTYYADSVKGRFTISRDNAKNTVYLQMNCLKPEDTAVYYCAAVRSRYGREYYYWGQGTQVTVSS | high polyreactivity
QVQLVESGGGLVQAGGSLRLSCAASGRTFEGNALGWYRQAPGKERELVAAITSGGRTNYADSVKGRFTISRDNAKNTVYLQMNSLKPEDTAVYYCAVETRDRSTYFPGQAYDYWGQGTQVTVSS | low polyreactivity
QVQLVESGGGLVQAGGSLRLSCAASGYTIVSYAMGWERQAPGKERELVASIRWRGGRTYYADSVKGRFTISRDNAKNTVYLQMNSLKPEDTAVYYCAASTYYSPYVAHYGYWGQGTQVTVSS | high polyreactivity
QVQLVESGGGLVQAGGSLRLSCAASGFIFVGNAMGGYRQAPGKERELVAAITSTDNTTYADSVKGRFTISRDNAKNTVYLQMNSLKPEDTAVYYCNARGYPYLYGYDYWGQGTQVTVSS | low polyreactivity
QVQLVESGGGLVQAGGSLRLSCAASGRIFTHNAMGWYRQAHGKERELVAAISYSGVSTYYADSVKGRFTISRDNAKNTVYLQMNSLIPEDTAVYYCARRYWYPDAFYRYDYWGQGTQGTVSS | low polyreactivity
QVQLVESGGGLVQAGGSLRLSCAASGRTFRYNAMGWYLQAPGKERELVAAITRRDGRTYYADSVKGRFTISRDNAKNTVYLQMNSLKPEDTAVYYCGVEYWVVNAQGYDYWGQGTQVTVSS | high polyreactivity
QVQLVESGGGLVQAGGSLRLSCAASGSTISSYAMGWYREAPGKERELVAAIDRSVSTNYADSVKGRFTISRDNAKNTVYLQMNSLKPEDTAVYYCNARHPTDDIVIYDYWGQGTQVTVSS | low polyreactivity
QVQLVESGGGLVQAGGSLRLSCAASGSTFYLYAMGWYRQAPGKERELVARISSSGGRTYYADSVKGRFTISRDNAKNTVYLQMNSLKPEDTAVYYCAASSFTSSYNYWGQGTQVTVSS | high polyreactivity
QVQHVESGGGLVQAGGSLRLSCAASGRTSYGNTMGWYRQAPGKERELVATISGGGSTNYADSVKGRFTISRDNAKNTVYLQMNSLKPDDTAVYYCAARRYPFPGYRYYYWGQGTQVTVSS | high polyreactivity
QVQLVESGGGLVQAGGSLRLSCAASGSISYYNAMGWYRQAPGKERELVAAITYSAGGTYYADSVKGRFTISRDNAKNTVYLQMNSLKPEDTAVYYCAADAYKHVAYGGVYWYYYWGLGTQVTVSS | high polyreactivity
QVQLVESGGGLVQAGGSLRLSCAASGRIFGYYAMGWYRQAPGKEREFVAGITQRTDSTYYADSVKGRFTISRDNAKNTVYLQMKSLKPEDTAVYYCAARGYGGYHWGYYWGQGTQVTVSS | high polyreactivity
QVQLVESGGGLVQAGGSLRLSCAASGSIFYVYAMGWYRQAPGKERELVATISSSAGSTYYADSVKGRFTISRDNAKNTVYLQMNSLKPEDTAVYYCAAKVRYSLRKYYYWGQGTQVTVSS | high polyreactivity

Sequence | polyreactivity (PSR sort gate)
QVQLVESGGGLVQAGGSLRLSCAASGLTFWNNAMGWYRQAPGKERELVARINNGDNTYYADSVKGRFTISRDNAKNTVYLQMNSLKPEDTAVYYCAAKRYSNIPWIHDISTFYYWGQGTQVTVSS | low polyreactivity
QVQLQESGGGLVQAGGSLRLSCAASGFIFARNYMGWNRQAPGKERELVAGIGVGASTNYADSVKGRFTISRDNAKNTVYLQINSLEPEDTAVYYCAVGDTVLGYHYYWGQGTQVTVSI | low polyreactivity
QVQLVESGGGLVQAGGSLRLSCAASGFTFRFYAMGWYRQAPGKERELVAAISRSGGDTYYADSVKGRFTISRDNAKNTVYLQMNSLKPEDTAVYYCNKATYRVAGRDFDYWGHGTQVTVSS | high polyreactivity
QFQLVESGGGLDQAGGSLRLTCAASGLTIRWYAMGWYRQAPGKERELVAAIRWSGGSTYYADSVKGRFTISRDNAKNTVYLQMNSLKPEDTALYYCAARFLGYQSGTERDYWGQGTQVTVSS | high polyreactivity
QVQLVESGGGLVQAGASLRLSCAASGFTFGTYAMGWYRQAPGKERELVAAITKSGVRTYYADSVKGRFTISRDNAKNTVYLQMNSLKPEDTAVYYCNARGHSSLSTIVDFWGQGTQVTVSS | high polyreactivity
QVQLVESGGGLVQAGGSLRLSCAASGRTFYVNAMGWYRQAPGKEMELVAAITNGGRTNYADSVKGRFTISRDNAKNTVYLQMNSLKPEDTAVYYCNKVSLRTQSAQFHYWGQGTQVTVSS | high polyreactivity
QVKLVESGGCLVQEGGSLRLSCAASGSIFGHYVMRWYRQAPGKERELVAAINRGGSTYYADSVKGRFTISRDNAKNTVYLQMNSLKPEDTAVYYCAAGYPSWYYGYPYDSWGQGTQVTVSS | low polyreactivity
QVQLVESGGGLVQAGGSLRLSCAASGLILSDYVMGWYRQAPGKEREFVAAITSTGGSTYYADSVKGRFTISRDNAKNTVYLQMNSLKPEDTAVYYCAVRIHFPFPRRYYYWGQGTQVTVSS | high polyreactivity
QVQLVESGGGLVQAGGSLRLSCAASGVIFVWYAMGWYRQAPGKERELVAAISSGGSTYYADSVKGRFTISRDNAKNTVYLQMNSLKPEDTAVYYCAADLWYYAYSYDYWGQGTQVTVSS | high polyreactivity
QVQLVESGGGLVQAGGSLRLSCAASGRTFSANAMGWYRQAPGKDRELVAANRRTGGRTYYADSVKGRFTISRDNAKNTDYLQMNSLKPEDTAVYYCKAVNKPYTREYGYDYWGQGTQGTVSS | high polyreactivity
QVQLVDSGGGLVQAGGSLRLSCAASGNTIGRNAMGWYRQAPGKEWELVAAISFSGSRTYYADSVKGRFTISRDNAKNSVYLQMNILKPEDTAVYNFIAPEGRKPYDSWVQGTQVTVSS | low polyreactivity
QVQLVESGGGLVQAGGSLRLSCAASGLTLAWYAMGGYRQAPGKERELVAAISWSGDSTYYADSVKGRFTISRDNAKNTVYLQMNSLKPEDTAVYYCATRVYGGYGYWGQGTQVTVSS | high polyreactivity
QVQLVESGGCLVQAGGSLRLSSAASGSTFRQYAMGWYRQAPGKERELVAAITWRGDNTYYADSVKGRFTISRDNAKNSVYLQMNSLKPEDTAVYYCAARWSYRLYWGYGYWGQGTQVTVSS | low polyreactivity
QVQLVESGGGLVQAGGSLRLSCAASGLILNYYTMGWYRQAPGKERELVATISSSTGSTYYADSVKGRFTISRDNAKNTVYLQMNSLKPEDTAVYYCAADHWSYWQIYDFWGQGTQVTVSS | low polyreactivity
QVQLVESGGGLVQAGGSLRLSCAASGFTFFSNAMGWYRQAPGKERELVAAITSSGGSTYADSVKGRFTISRDNAKNTVYLQMNSLKPEDTAVYYCAADAEAPPGGFKEYDYWGHGTQVTVSS | low polyreactivity
QVQLVESGGGLVQAGGSLRLSCAASGRIFPLNAMGWYRQAPGKERELVAAIRNGGRTNYADSVKGRFTISPDNAKNTVYVQMNSLKPEDTAVYYCSFTLSSVLQYDSWGQGTQVTVSS | low polyreactivity
